Test results: patent US20230313203A1
pKd: −log10 of the molar value. Values joined by “and” are separate entries in the source; they are usually repeats but may differ in a detail not shown here. Equal values may be shown once. Read-outs that look alike come from different tables or passages of the source.

What was measured:
Assay in all cases: filter
[1] = target: SARS-CoV-2 spike receptor binding domain (Wuhan) (SARS-CoV-2) (UniProt P0DTC2)
[2] = target: SARS-CoV-2 spike S1 (Wuhan), His-tagged (SARS-CoV-2) (UniProt P0DTC2)
[3] = target: SARS-CoV-2 spike S1 (Wuhan), untagged (SARS-CoV-2) (UniProt P0DTC2)
[4] = target: SARS-CoV-1 spike S1 (SARS-CoV-1) (UniProt P59594)
[5] = first 20 nt DNA, rest FANA (T in random region is faU)
[6] = first 20 nt DNA, rest FANA (SEQ ID NO 17)
[7] = first 20 nt DNA, rest FANA (SEQ ID NO 1)
[8] = first 20 nt DNA, rest FANA (SEQ ID NO 3)

For “AAAAGGTAGTGCTGAATTCGATTCTCGATTGATGGCATAAAAAGCATAGAATCGCAAGCAUUCGCUAUCCAGUUGGCCU [FANA-R8-7]”, the pKd [1, 5] was 7.20 and the pKd [2, 5] was 7.51.

“AAAAGGTAGTGCTGAATTCGCGAGCCCGCAUGAAAAGGGGAGAUAAAAAAUAUCUGUCGAUUCGCUAUCCAGUUGGCCU [FANA-R8-9]” was tested, and the pKd [1] was 7.63 and 7.71, the pKd [2] was 7.83 and the pKd [3] was 7.53. The pKd [4] was 6.59.

With “AAAAGGTAGTGCTGAATTCGCGAGCCCGCAUGAAAAGGGGAGAUAUGCAAUAUCUGUCGAUUCGCUAUCCAGUUGGCCU [FANA-R8-22]” the pKd [1, 6] was 7.67 and the pKd [2, 6] was 7.88.

“AAAAGGTAGTGCTGAATTCGGGAGCTCGAACAGATGGGATAAAAAGCATAGCTCACCAATUUCGCUAUCCAGUUGGCCU [FANA-R8-15]” was tested, and the pKd [1, 5] was 7.36 and the pKd [2, 5] was 7.56.

“AAAAGGTAGTGCTGAATTCGGTCGCGATTAACATTAAACCGCATAAAAAGGGTGGCCGGAUUCGCUAUCCAGUUGGCCU [FANA-R8-3]” was tested, and the pKd [1, 5] was 7.17 and the pKd [2, 5] was 7.33.

Sequence “AAAAGGTAGTGCTGAATTCGNNNNNNNNNNNNNNNNNNNNNNNNNNNNNNNNNNNNNNNNUUCGCUAUCCAGUUGGCCU [FANA-ST]” has a pKd ([1]; first 20 nt DNA, rest 2'-fluoro-arabino (FANA)) of 5.77.

“AAAAGGTAGTGCTGAATTCGUCGAACUAAACCGAAUUGAUGGCAUAAAAAGCAUGUUUAGUUCGCUAUCCAGUUGGCCU [FANA-R8-5]” gave a pKd [1, 7] of 7.58 and a pKd [2, 7] of 7.78.

Sequence “AAAAGGTAGTGCTGAATTCGUCGAACUAAUCCGAAUUGAUGGCAUAAAAAGCAUGUUUAGUUCGCUAUCCAGUUGGCCU [FANA-R8-17]” has a pKd [1, 8] of 7.53 and a pKd [2, 8] of 7.72.
